From paper PMC11892739, “Site-specific molecular glues for the 14-3-3/Tau pS214 protein–protein interaction via reversible covalent imine tethering” (RSC Medicinal Chemistry, 2025)
Square brackets hold non-standard residues; d marks the D form. Ends that are not written are not given here. pS = N[C@@H](COP(=O)(O)O)C(=O)O

Assays:
[1] = target: T1, 14-3-3ζ/Tau pS2 peptide (Homo sapiens, UniProt P63104); assay: Differential scanning fluorimetry of 14-3-3 with Tau pS2 peptide and compounds; format: binding; conditions: 10-fold excess of Tau pS2 peptide relative to 14-3-3ζ
T1 construct: made in house; host or cells: NiCo21 (DE3) E. coli
T1 sequence (P63104 1-245): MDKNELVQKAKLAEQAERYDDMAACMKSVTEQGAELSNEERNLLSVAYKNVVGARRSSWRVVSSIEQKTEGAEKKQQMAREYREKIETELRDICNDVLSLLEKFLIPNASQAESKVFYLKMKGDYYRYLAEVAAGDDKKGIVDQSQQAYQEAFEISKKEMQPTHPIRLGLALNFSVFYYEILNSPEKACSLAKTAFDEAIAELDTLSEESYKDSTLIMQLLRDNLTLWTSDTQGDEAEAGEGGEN
Method: Fig. 3 a Dose–response fluorescence anisotropy data of compound titrations to 10 nM FITC-labeled Tau pS2 peptide and 100 nM 14-3-3ζ. […] Mean of three individually performed experiments (see ESI ^† Fig. S8 for the protein titrations). e Differential scanning fluorimetry assay results. Identified melting temperatures (Tm) of 14-3-3γ alone (2.5 μM) and in the presence of Tau pS2 peptide (25 μM) and additionally with selected compounds (75 μM).
As an orthogonal method to profile the PPI stabilizing activity of selected compounds, differential scanning fluorimetry (DSF) assays were performed (Fig. 3e). […] Upon addition of compounds (1, 11, 13–14, and 20–22) to this PPI complex (30-fold compared to 14-3-3ζ), an additional increase in melting temperature between 0.9 °C and 2.1 °C was observed relative to the binary 14-3-3ζ/Tau pS2 peptide system. These observations are in agreement with the stabilization observed in the FA data and strongly testify to the molecular glue effect of our compound, by enhancing the stability of the PPI complex. […]
chromatography (HisTrap high performance cartridges, Cytiva). Typically two 5 mL columns were used for a 2 L culture in which the lysate was loaded on the column, washed with 10 CV wash buffer (50 mM Hepes, pH 8.0, 300 mM NaCl, 25 mM imidazole, 2 mM βME), and eluted with several fractions (2-4 CV) of elution buffer (50 mM Hepes, pH 8.0, 300 mM NaCl, 250 mM imidazole, 2 mM βME). Fractions containing the 14-3-3 protein were combined and dialyzed into 25 mM HEPES pH 8.0, 200 mM NaCl, 10 mM MgCl2, 2 mM βME, followed by dialysis into 25 mM HEPES, 100 mM NaCl, 10 mM MgCl2, 500 μM TCEP (adjusted to pH 8.0). Dialyzed protein was concentrated to ∼40 mg/mL, analyzed by Q -Tof LC/MS, and aliquots were flash -frozen for storage at −80 °C. For 14 -3-3σ∆c, 1 mg TEV per 100 mg purified protein was added to the dialysis to remove the purification tag. The cleaved sample was then again loaded on a 10 mL Ni-NTA column to separate the cleaved product from the expression tag and residual uncleaved protein. The flowthrough was loade d on a Superdex 75 pg 16/60 size exclusion column (GE Life Sciences) using 25 mM HEPES, 100 mM NaCl, 10 mM MgCl2, 500 μM TCEP (adjusted to pH = 8.0) as running buffer. Fractions containing the 14 -3-3 protein were pooled and concentrated to ∼60 mg/mL, analyzed Q -Tof LC/MS, and aliquots were flash -frozen for storage at −80°C. […]
The peptide screen was performed in a similar way as the 14-3-3ζ titration in the precence of compound.
14-3-3ζ was titrated in a 2-fold dilution series (starting at 400 µM 14-3-3ζ) to 100 nM of fluorescein-labeled peptides and 250 µM compound 18 (1% DMSO) in FA buffer (10 mM HEPES pH 7.4, 150 mM […]
Data shown is the average of a scientific triplicate.
Differential Scanning Fluorimetry (DSF)
DSF was performed using 40 µl samples containing 2.5 µM 14 -3-3ζ, 25 µM Tau peptide (Tau pS2, Tau pS214 or Tau pS324), […] (1% DMSO) and 5x ProteoOrange (Lumiprobe, 5000x stock in DMSO) in 10 mM HEPES, 150 mM NaCl, 50 µM TCEP (pH 7.4). The samples were heated from 35 °C to 79°C at a rate of 0.3 °C per 15 s in a C FX96 Touch Real-Time PCR Detection System (Bio -Rad). Fluorescence intensity was determined using excitation ( λem=525/20 nm) and emission ( λex=570/20 nm) filters.
Based on these melting curves, the negative derivative melting curve is obtained from which the melting temperature Tm was determined. All described melting temperatures are based on two or three independent experiments, from which the average and standard deviations were determined.
X-ray crystallography data collection and refinement
For x-ray crystallography, a C-terminally truncated 14-3-3σ protein (truncated after T231 to reduce flexibility) was used. This 14-3-3σ∆C was preincubated with Tau pS214 in complexation buffer (20 mM HEPES pH 7.5, 2 mM MgCl2 and 100 μM TCEP) in a 1:1.5 molar stoichiometry (protein:peptide) at a final protein concentration of 10.0 mg/mL. […]

[2] = target: 14-3-3ζ; parameters: method as in doi:10.1101/2024.03.15.585148; conditions: FA assay, binary complex; read-out: KD of bivalent Tau pS2 peptide to 14-3-3ζ; cited from earlier work

ΔTm, increase of 14-3-3 melting temperature compared to apo-14-3-3ζ [1]: ~0.6 °C
Substance: Tau pS2 peptide: bivalent Tau peptide phosphorylated at S214 + S324: SRTP{pS}LPTPPTREGGGSGGGSGGGVTSKCG{pS}LGNIHHK (chain 1 SRTP[pS]LPTPPTREGGGSGGGSGGGVTSKCG[pS]; numbers in words are those of the source; also: chains 1 and 2 are one continuous peptide joined through pS324) [reference compound]
Kd [2]: 945 ± 70 nM
